Data: patent publication US20180230200A1 (CITY OF HOPE, published 2018)

What was measured:
Test in all cases: intracellular FC, MVA-infected BHK-21
[1] = target: T1, UL128/UL131A co-expressed from MVA in BHK-21 cells (human cytomegalovirus, UniProt P16837 28-171; F5HET4 19-129)
T1 construct: whole, on cells
Method: (§1) NAb subunit specificity was evaluated by staining BHK-21 cells infected with different MVA recombinants. One or more vectors were used to co-infect BHK-21 at an MOI of 5. […] Four hours post infection cells were fixed and permeabilized using Cytofix/Cytoperm solution (BD Biosciences). NAbs (1 mg/ml) were diluted 1:500 in perm/wash buffer (BD) and added to the cells for 1 hour at 4° C. […] Cells were washed again and resuspended in PBS/0.1% BSA. Fifteen thousand events were collected using the Gallios Flow Cytometer (Beckman Coulter, Miami, Fla., USA) and analyzed with FlowJo Software (Tree Star, Ashland, Oreg., USA). Uninfected cells and cells infected with MVA-Venus were used as controls. GFP expression was analyzed for confirming MVA infection since all the constructs contain a GFP expression cassette (36, 62).
(§2) In order to determine the antigen specificity of the vaccine-derived NAbs, intracellular flow cytometry (FC) staining of permeabilized BHK-21 cells infected with MVA expressing single subunits or combinations of two or more subunits of the PC was evaluated.

[2] = target: T2, UL128/UL130/UL131A co-expressed from MVA in BHK-21 cells (human cytomegalovirus, UniProt P16837 28-171; P16772 1-214; F5HET4 19-129)
T2 construct: whole, on cells
Method: as §1, §2

[3] = target: T3, UL130 expressed from MVA in BHK-21 cells (human cytomegalovirus, UniProt P16772 1-214)
T3 construct: whole, on cells
Method: as §1, §2

[4] = target: T4, UL130/UL131A co-expressed from MVA in BHK-21 cells (human cytomegalovirus, UniProt P16772 1-214; F5HET4 19-129)
T4 construct: whole, on cells
Method: as §1, §2

[5] = target: T5, UL128/UL130 co-expressed from MVA in BHK-21 cells (human cytomegalovirus, UniProt P16837 28-171; P16772 1-214)
T5 construct: whole, on cells
Method: as §1, §2

[6] = target: T6, UL128 expressed from MVA in BHK-21 cells (human cytomegalovirus, UniProt P16837 28-171)
T6 construct: whole, on cells
T6 sequence: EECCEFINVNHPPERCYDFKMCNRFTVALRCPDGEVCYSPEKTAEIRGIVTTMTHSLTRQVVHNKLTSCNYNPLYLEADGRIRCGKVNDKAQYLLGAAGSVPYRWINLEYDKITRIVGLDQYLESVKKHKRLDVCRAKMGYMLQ
Method: as §1, §2

[7] = target: T7, UL131A expressed from MVA in BHK-21 cells (human cytomegalovirus, UniProt F5HET4 19-129)
T7 construct: whole, on cells
Method: as §1, §2

Measured: binding result

T4 sequence (P16772 26-214 limits assumed, chain 1 of 2): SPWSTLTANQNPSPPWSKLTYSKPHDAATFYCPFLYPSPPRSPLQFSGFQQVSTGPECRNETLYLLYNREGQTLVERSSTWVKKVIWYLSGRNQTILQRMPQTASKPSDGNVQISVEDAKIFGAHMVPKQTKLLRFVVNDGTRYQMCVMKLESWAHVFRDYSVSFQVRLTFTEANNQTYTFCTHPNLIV
T4 sequence (F5HET4 19-129 limits assumed, chain 2 of 2): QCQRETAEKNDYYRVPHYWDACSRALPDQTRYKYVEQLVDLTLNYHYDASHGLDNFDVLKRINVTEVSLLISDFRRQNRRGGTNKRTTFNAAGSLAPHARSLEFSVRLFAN
T2 sequence (P16772 26-214 limits assumed, chain 2 of 2): as the sequence (P16772 26-214 limits assumed, chain 1 of 2) above
T2 sequence (F5HET4 19-129 limits assumed, chain 3 of 2): as the sequence (F5HET4 19-129 limits assumed, chain 2 of 2) above
T3 sequence (P16772 26-214 limits assumed): as the sequence (P16772 26-214 limits assumed, chain 1 of 2) above
T7 sequence (F5HET4 19-129 limits assumed): as the sequence (F5HET4 19-129 limits assumed, chain 2 of 2) above
T1 sequence (F5HET4 19-129 limits assumed, chain 2 of 2, one chain of several): as the sequence (F5HET4 19-129 limits assumed, chain 2 of 2) above
T5 sequence (P16772 26-214 limits assumed, chain 2 of 2, one chain of several): as the sequence (P16772 26-214 limits assumed, chain 1 of 2) above

B1: 18F10 (antibody, V domains shown)
VH: QVTLKESGPGILQPSQTLSLTCSFSGFSLSTYGIGIGWIRQPSGKGLEWLAHIWWNDNKNYNTALKSRLTISKDPSNNQVFLKIASVDTADTATYFCARTGYFDVWGAGTTVTVSS
VL: DVVLTQTPLSLPVSLGDQVSISCSSSQSLVHSNGNTYIHWYLQKPGQSPKLLIYTVSNRFSGVPDRFSGSGSGTDFTLKISRVEAEDLGLYFCSQSTHVPYTFGGGTKLEIK
notes: also called NAb 18F10
no binding: all assays above
